Test results: paper PMC5440646, “T Cell Costimulation by CD6 Is Dependent on Bivalent Binding of a GADS/SLP-76 Complex” (Molecular and Cellular Biology, 2017)
Where two headings read alike, the source gives them in different places. Each block holds one substance with its values, some of them ahead of it.

Legend:
GADS = GADS (UniProt O75791); test: CD6 MAb immunoprecipitation, Western blot; settings: reference: wild-type CD6-EGFP; sites Y629
SLP-76 = SLP-76 (UniProt Q13094); test: CD6 MAb immunoprecipitation, Western blot; settings: reference: wild-type CD6-EGFP; sites Y662
[1] = target: SLP-76 proline-rich motif (Homo sapiens) (UniProt Q13094); settings: cited from earlier work
[2] = target: long CD6 peptide phosphorylated at Y629 and Y662 (human); test: SPR; biotinylated long CD6 peptides immobilised at ~50 response units on streptavidin-coated CM5 chips, BIAcore 3000; SH2 domains injected at 10 μl/min at 37°C; equilibrium binding, 1:1 Langmuir
[3] = target: long CD6 peptide phosphorylated at Y629 (human); test: as above
[4] = target: SLP-76 proline-rich motif (Homo sapiens) (UniProt Q13094); settings: cited from earlier work; remark: listed apart in the source
[5] = target: long CD6 peptide phosphorylated at Y662 (human); test: SPR; biotinylated long CD6 peptides immobilised at ~50 response units on streptavidin-coated CM5 chips, BIAcore 3000; SH2 domains injected at 10 μl/min at 37°C; equilibrium binding, 1:1 Langmuir
Chain of long CD6 peptide phosphorylated at Y662 (human) (P30203 622-668): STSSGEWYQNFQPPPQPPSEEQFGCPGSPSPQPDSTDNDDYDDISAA

Chain of long CD6 peptide phosphorylated at Y629 and Y662 (human) (P30203 622-668): as above
Chain of GADS C-terminal SH3 (O75791 271-330): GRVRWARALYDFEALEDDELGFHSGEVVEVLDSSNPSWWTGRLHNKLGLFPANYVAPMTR
Chain of long CD6 peptide phosphorylated at Y629 (human) (P30203 622-668): as the sequence (P30203 622-668) above
Chain of GRB2 C-terminal SH3 (P62993 156-215): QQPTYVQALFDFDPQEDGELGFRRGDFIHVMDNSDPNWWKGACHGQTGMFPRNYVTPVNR

Substance: CD6 (from UniProt P30203) Y629F
binding against the reference (GADS): weaker

Substance: GADS C-terminal SH3 (from UniProt O75791)
Kd [1]: 200 nM

Substance: GRB2 C-terminal SH3 (from UniProt P62993)
Kd [4]: 10000 nM

The remaining lines, values ahead:

binding against the reference (SLP-76): weaker
Substance: CD6 (from UniProt P30203) Y662F

Kd [2]: 100 to 2000 nM
Kd [3]: 200 to 600 nM
Substance: GADS SH2 domain, His-tagged (from UniProt O75791 58-149) (domain or fragment)

Kd [2]: 300 to 2000 nM
Kd [5]: 300 to 2000 nM
Substance: SLP-76 SH2 domain, His-tagged (from UniProt Q13094 422-530) (domain or fragment)
